This data set deals with Escherichia coli TOP10. The experiment in a line: shrunken log2 fold change of peptide-encoding DNA abundance (4.5 h post-induction vs induction); higher = less antimicrobial activity (less host growth inhibition). The settings on record: time post-induction: 4.5 h; library: site-saturation at positions 5, 18, 19, 20.
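Note: peptides expressed intracellularly from a pBAD plasmid library in pooled LB shake-flask culture, induced with 0.3% L-arabinose, DNA abundance read by NGS, three biological replicates, DESeq2 with apeglm shrinkage.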

With RRIRHRPPRLPRPRPRPIELPRP, the “shrunken log2 fold change” value was -0.0301. Next, RRIRGRPPRLPRPRPRPNFMPRP: 0.0686. As for RRIRDRPPRLPRPRPRPIMSPRP, the figure is -0.0134. As for RRIRVRPPRLPRPRPRPLLCPRP, the figure is -0.642.

Regarding RRIRDRPPRLPRPRPRPDNEPRP, the “shrunken log2 fold change” value was -0.0213. Next, RRIRPRPPRLPRPRPRPIYPPRP: -0.269; RRIRHRPPRLPRPRPRPVDYPRP: -0.253.

In the case of RRIRPRPPRLPRPRPRPPLHPRP, the “shrunken log2 fold change” value was 0.21. As for RRIRGRPPRLPRPRPRPQGSPRP, the figure is -0.0808.

Take RRIRQRPPRLPRPRPRPNLGPRP: the “shrunken log2 fold change” value was 0.0673. As for RRIRMRPPRLPRPRPRPKVTPRP, the figure is 0.209; as for RRIRVRPPRLPRPRPRPACMPRP, -0.0781. For RRIRERPPRLPRPRPRPPTTPRP, the “shrunken log2 fold change” value came to 0.322. Next, RRIRYRPPRLPRPRPRPKVWPRP: 0.221; RRIRMRPPRLPRPRPRPQCEPRP: -0.00192; RRIRDRPPRLPRPRPRPYRQPRP: 0.0922. Next, RRIRTRPPRLPRPRPRPETKPRP: 0.00321; RRIRERPPRLPRPRPRPMMEPRP: -0.0582; RRIRYRPPRLPRPRPRPYYLPRP: -0.31.

On to RRIRARPPRLPRPRPRPTRTPRP, for which the “shrunken log2 fold change” value turned out to be 0.653.

Turning to RRIRLRPPRLPRPRPRPCCNPRP, the “shrunken log2 fold change” value is -0.155. For the sequence RRIRNRPPRLPRPRPRPHLMPRP, the “shrunken log2 fold change” value is -0.584.

On to RRIRIRPPRLPRPRPRPKMFPRP, for which the “shrunken log2 fold change” value stood at 0.0072. Next, RRIRYRPPRLPRPRPRPFRYPRP: -0.315; RRIRKRPPRLPRPRPRPPMVPRP: 0.296; RRIRHRPPRLPRPRPRPSSMPRP: -0.474.

As to RRIRFRPPRLPRPRPRPECHPRP, the “shrunken log2 fold change” value was found to be 0.0585.

Regarding RRIRRRPPRLPRPRPRPVKRPRP, the “shrunken log2 fold change” value came to 0.457. Next, RRIRKRPPRLPRPRPRPTQTPRP: 1.25; RRIRTRPPRLPRPRPRPLAIPRP: 0.00788. As for RRIRSRPPRLPRPRPRPCDDPRP, the figure is 0.161. Next, RRIRSRPPRLPRPRPRPHFKPRP: -0.383; RRIRHRPPRLPRPRPRPAMGPRP: -0.336; RRIRSRPPRLPRPRPRPYYKPRP: -0.892. As to RRIRMRPPRLPRPRPRPDFFPRP, the “shrunken log2 fold change” value was 0.29. Take RRIRNRPPRLPRPRPRPHFYPRP: the “shrunken log2 fold change” value is -0.816.

Consider RRIRCRPPRLPRPRPRPSQCPRP, for which the “shrunken log2 fold change” value was -0.548.

With RRIRRRPPRLPRPRPRPWDRPRP, the “shrunken log2 fold change” value stood at 0.26. As for RRIRQRPPRLPRPRPRPQLFPRP, the figure is 0.0846; as for RRIRHRPPRLPRPRPRPIYRPRP, -0.111; as for RRIRNRPPRLPRPRPRPHSTPRP, -0.412. In the case of RRIRARPPRLPRPRPRPKNCPRP, the “shrunken log2 fold change” value is -0.245.

For RRIRPRPPRLPRPRPRPIDIPRP, the “shrunken log2 fold change” value is -0.252. Next, RRIRCRPPRLPRPRPRPLHIPRP: -0.335. Next, RRIRERPPRLPRPRPRPVCMPRP: -0.164.

RRIRHRPPRLPRPRPRPCCQPRP: the “shrunken log2 fold change” value was -0.243. Next, RRIRKRPPRLPRPRPRPRFTPRP: 0.158. RRIRYRPPRLPRPRPRPEHLPRP: the “shrunken log2 fold change” value is -0.357.

Consider RRIRIRPPRLPRPRPRPKGCPRP, for which the “shrunken log2 fold change” value was -0.00865. Next, RRIRLRPPRLPRPRPRPFAQPRP: 0.18.

The values are drawn from the supplement of paper PMC9112550, “Optimization of the antimicrobial peptide Bac7 by deep mutational scanning” (BMC Biology, 2022).
